Test results from patent US20230293638A1 (Eli Lilly, published 2023).
Positions count from the first letter of the chain named. Numbered stars: 1 amine (or outer) side, 2 acyl side, 3 side chain; on linkers, the order of the positions; unused ones are H or OH. Square brackets hold non-standard residues; d marks the D form. Side chains are listed from the residue outwards. Ends that are not written are not given here. * marks the point of attachment. C20 diacid = O=C(O)CCCCCCCCCCCCCCCCCCC(=O)*; C18 diacid = O=C(O)CCCCCCCCCCCCCCCCC(=O)*; αMePhe(2-F) = C[C@](N)(Cc1ccccc1F)C(=O)O; γGlu = O=C(O)[C@H](CCC(=O)[*:2])N[*:1]; αMeL = CC(C)C[C@](C)(N)C(=O)O; αMeK = C[C@](N)(CCCCN)C(=O)O; αMeP = C[C@@]1(C(=O)O)CCCN1; AEEA = NCCOCCOCC(=O)O; Aib = CC(C)(N)C(=O)O

B1: Peptide 180 (peptide)
peptide: Y[Aib]EGT[αMePhe(2-F)]TSDHSI[αMeL]LDEK([AEEA-AEEA-γGlu-C18 diacid])AQ[Aib]HFI[dE]YLIEGG-NH2
modifications: N-terminus assumed
SMILES: CC[C@H](C)[C@H](NC(=O)[C@H](CC(C)C)NC(=O)[C@H](Cc1ccc(O)cc1)NC(=O)[C@@H](CCC(=O)O)NC(=O)[C@@H](NC(=O)[C@H](Cc1ccccc1)NC(=O)[C@H](Cc1c[nH]cn1)NC(=O)C(C)(C)NC(=O)[C@H](CCC(N)=O)NC(=O)[C@H](C)NC(=O)[C@H](CCCCNC(=O)COCCOCCNC(=O)COCCOCCNC(=O)CC[C@H](NC(=O)CCCCCCCCCCCCCCCCC(=O)O)C(=O)O)NC(=O)[C@H](CCC(=O)O)NC(=O)[C@H](CC(=O)O)NC(=O)[C@H](CC(C)C)NC(=O)[C@](C)(CC(C)C)NC(=O)[C@@H](NC(=O)[C@H](CO)NC(=O)[C@H](Cc1c[nH]cn1)NC(=O)[C@H](CC(=O)O)NC(=O)[C@H](CO)NC(=O)[C@@H](NC(=O)[C@](C)(Cc1ccccc1F)NC(=O)[C@@H](NC(=O)CNC(=O)[C@H](CCC(=O)O)NC(=O)C(C)(C)NC(=O)[C@@H](N)Cc1ccc(O)cc1)[C@@H](C)O)[C@@H](C)O)[C@@H](C)CC)[C@@H](C)CC)C(=O)N[C@@H](CCC(=O)O)C(=O)NCC(=O)NCC(N)=O
B2: Peptide 21 (peptide)
peptide: Y[Aib]EGTFTSDYSI[αMeL]LDEK([AEEA-AEEA-γGlu-C20 diacid])AQ[αMeK]AFIEYLLEGGPSSGAPPPS-NH2
modifications: N-terminus assumed
SMILES: CC[C@H](C)[C@H](NC(=O)[C@H](Cc1ccccc1)NC(=O)[C@H](C)NC(=O)[C@](C)(CCCCN)NC(=O)[C@H](CCC(N)=O)NC(=O)[C@H](C)NC(=O)[C@H](CCCCNC(=O)COCCOCCNC(=O)COCCOCCNC(=O)CC[C@H](NC(=O)CCCCCCCCCCCCCCCCCCC(=O)O)C(=O)O)NC(=O)[C@H](CCC(=O)O)NC(=O)[C@H](CC(=O)O)NC(=O)[C@H](CC(C)C)NC(=O)[C@](C)(CC(C)C)NC(=O)[C@@H](NC(=O)[C@H](CO)NC(=O)[C@H](Cc1ccc(O)cc1)NC(=O)[C@H](CC(=O)O)NC(=O)[C@H](CO)NC(=O)[C@@H](NC(=O)[C@H](Cc1ccccc1)NC(=O)[C@@H](NC(=O)CNC(=O)[C@H](CCC(=O)O)NC(=O)C(C)(C)NC(=O)[C@@H](N)Cc1ccc(O)cc1)[C@@H](C)O)[C@@H](C)O)[C@@H](C)CC)C(=O)N[C@@H](CCC(=O)O)C(=O)N[C@@H](Cc1ccc(O)cc1)C(=O)N[C@@H](CC(C)C)C(=O)N[C@@H](CC(C)C)C(=O)N[C@@H](CCC(=O)O)C(=O)NCC(=O)NCC(=O)N1CCC[C@H]1C(=O)N[C@@H](CO)C(=O)N[C@@H](CO)C(=O)NCC(=O)N[C@@H](C)C(=O)N1CCC[C@H]1C(=O)N1CCC[C@H]1C(=O)N1CCC[C@H]1C(=O)N[C@@H](CO)C(N)=O
B3: Peptide 22 (peptide)
peptide: Y[Aib]EGTFTSDYSI[αMeL]LDEK([AEEA-AEEA-γGlu-C20 diacid])AQ[αMeK]AFIEYLLE[Aib]GPSSGAPPPS-NH2
modifications: N-terminus assumed
SMILES: CC[C@H](C)[C@H](NC(=O)[C@H](Cc1ccccc1)NC(=O)[C@H](C)NC(=O)[C@](C)(CCCCN)NC(=O)[C@H](CCC(N)=O)NC(=O)[C@H](C)NC(=O)[C@H](CCCCNC(=O)COCCOCCNC(=O)COCCOCCNC(=O)CC[C@H](NC(=O)CCCCCCCCCCCCCCCCCCC(=O)O)C(=O)O)NC(=O)[C@H](CCC(=O)O)NC(=O)[C@H](CC(=O)O)NC(=O)[C@H](CC(C)C)NC(=O)[C@](C)(CC(C)C)NC(=O)[C@@H](NC(=O)[C@H](CO)NC(=O)[C@H](Cc1ccc(O)cc1)NC(=O)[C@H](CC(=O)O)NC(=O)[C@H](CO)NC(=O)[C@@H](NC(=O)[C@H](Cc1ccccc1)NC(=O)[C@@H](NC(=O)CNC(=O)[C@H](CCC(=O)O)NC(=O)C(C)(C)NC(=O)[C@@H](N)Cc1ccc(O)cc1)[C@@H](C)O)[C@@H](C)O)[C@@H](C)CC)C(=O)N[C@@H](CCC(=O)O)C(=O)N[C@@H](Cc1ccc(O)cc1)C(=O)N[C@@H](CC(C)C)C(=O)N[C@@H](CC(C)C)C(=O)N[C@@H](CCC(=O)O)C(=O)NC(C)(C)C(=O)NCC(=O)N1CCC[C@H]1C(=O)N[C@@H](CO)C(=O)N[C@@H](CO)C(=O)NCC(=O)N[C@@H](C)C(=O)N1CCC[C@H]1C(=O)N1CCC[C@H]1C(=O)N1CCC[C@H]1C(=O)N[C@@H](CO)C(N)=O
B4: Peptide 172 (peptide)
peptide: YXEGTXTSDHSIXLDXKAQXTFIXYLIEGGPSSGAPPPS
modifications: Aib2; αMeF(2F)6; αMeL13; Dab16; K17((2-[2-(2-Amino-ethoxy)-ethoxy]-acetyl)2-(γGlu)-CO-(CH2)18-CO2H); Aib20; D-Glu24; C-terminal NH2
B5: Peptide 202 (peptide)
peptide: B4 peptide with H10X, X16K, T21E
modifications: Aib2; αMeF(2F)6; 4Pal10; αMeL13; K17((2-[2-(2-Amino-ethoxy)-ethoxy]-acetyl)-(γGlu)-(2-[2-(2-Amino-ethoxy)-ethoxy]-acetyl)-CO-(CH2)18-CO2H); Aib20; D-Glu24; C-terminal NH2
B6: Peptide 208 (peptide)
peptide: B4 peptide with H10Y, X16E, T21E
modifications: Aib2; αMeF(2F)6; αMeL13; K17((2-[2-(2-Amino-ethoxy)-ethoxy]-acetyl)2-(γGlu)-CO-(CH2)14-CO2H); Aib20; D-Glu24; C-terminal NH2
B7: Peptide 181 (peptide)
peptide: B4 peptide with H10X, X16E, T21E
modifications: Aib2; αMeF(2F)6; 3Pal10; αMeL13; K17((2-[2-(2-Amino-ethoxy)-ethoxy]-acetyl)2-(γGlu)-CO-(CH2)18-CO2H); Aib20; D-Glu24; C-terminal NH2
B8: Peptide 206 (peptide)
peptide: B4 peptide with H10X, X16E, T21E
modifications: Aib2; αMeF(2F)6; 4Pal10; αMeL13; K17((2-[2-(2-Amino-ethoxy)-ethoxy]-acetyl)2-CO-(CH2)18-CO2H); Aib20; D-Glu24; C-terminal NH2
B9: Peptide 207 (peptide)
peptide: B4 peptide with H10X, X16E, T21E
modifications: Aib2; αMeF(2F)6; 4Pal10; αMeL13; K17((2-[2-(2-Amino-ethoxy)-ethoxy]-acetyl)2-(εK)-CO-(CH2)18-CO2H); Aib20; D-Glu24; C-terminal NH2
B10: Peptide 174 (peptide)
peptide: B4 peptide with X16E
modifications: Aib2; αMeF(2F)6; αMeL13; K17((2-[2-(2-Amino-ethoxy)-ethoxy]-acetyl)2-CO-(CH2)18-CO2H); Aib20; D-Glu24; C-terminal NH2
B11: Peptide 204 (peptide)
peptide: B4 peptide with H10X, X16E, T21E
modifications: Aib2; αMeF(2F)6; 4Pal10; αMeL13; K17((2-[2-(2-Amino-ethoxy)-ethoxy]-acetyl)2-(γGlu)-CO-(CH2)16-CO2H); Aib20; D-Glu24; C-terminal NH2
B12: Peptide 205 (peptide)
peptide: B4 peptide with H10X, X16E, T21E
modifications: Aib2; αMeF(2F)6; 4Pal10; αMeL13; K17((2-[2-(2-Amino-ethoxy)-ethoxy]-acetyl)2-CO-(CH2)16-CO2H); Aib20; D-Glu24; C-terminal NH2
B13: Peptide 176 (peptide)
peptide: B4 peptide with X16E
modifications: Aib2; αMeF(2F)6; αMeL13; K17((2-[2-(2-Amino-ethoxy)-ethoxy]-acetyl)2-(εK)-CO-(CH2)16-CO2H); Aib20; D-Glu24; C-terminal NH2
B14: Peptide 187 (peptide)
peptide: B4 peptide with H10Q, X16E, T21E
modifications: Aib2; αMeF(2F)6; αMeL13; K17((2-[2-(2-Amino-ethoxy)-ethoxy]-acetyl)2-(γGlu)-CO-(CH2)18-CO2H); Aib20; D-Glu24; C-terminal NH2
B15: Peptide 178 (peptide)
peptide: B4 peptide with X16E, T21H
modifications: Aib2; αMeF(2F)6; αMeL13; K17((2-[2-(2-Amino-ethoxy)-ethoxy]-acetyl)2-(γGlu)-CO-(CH2)14-CO2H); Aib20; D-Glu24; C-terminal NH2
B16: Peptide 203 (peptide)
peptide: B4 peptide with H10X, X16K, T21E
modifications: Aib2; αMeF(2F)6; 4Pal10; αMeL13; K17((2-[2-(2-Amino-ethoxy)-ethoxy]-acetyl)2-(γGlu)-CO-(CH2)18-CO2H); Aib20; D-Glu24; C-terminal NH2
B17: Peptide 189 (peptide)
peptide: B4 peptide with H10X, X16E, T21E
modifications: Aib2; αMeF(2F)6; 4Pal10; αMeL13; K17((2-[2-(2-Amino-ethoxy)-ethoxy]-acetyl)2-(γGlu)-CO-(CH2)18-CO2H); Aib20; Aib24; C-terminal NH2
B18: Peptide 173 (peptide)
peptide: B4 peptide
modifications: Aib2; αMeF(2F)6; αMeL13; Dap16; K17((2-[2-(2-Amino-ethoxy)-ethoxy]-acetyl)2-(γGlu)-CO-(CH2)18-CO2H); Aib20; D-Glu24; C-terminal NH2
B19: Peptide 182 (peptide)
peptide: B4 peptide with H10X, X16E, T21E
modifications: Aib2; αMeF(2F)6; 4Pal10; αMeL13; K17((2-[2-(2-Amino-ethoxy)-ethoxy]-acetyl)2-(γGlu)-CO-(CH2)18-CO2H); Aib20; D-Glu24; C-terminal NH2
B20: Peptide 183 (peptide)
peptide: B4 peptide with H10L, X16E, T21E
modifications: Aib2; αMeF(2F)6; αMeL13; K17((2-[2-(2-Amino-ethoxy)-ethoxy]-acetyl)2-(γGlu)-CO-(CH2)18-CO2H); Aib20; D-Glu24; C-terminal NH2
B21: Peptide 179 (peptide)
peptide: Y[Aib]EGT[αMePhe(2-F)]TSDHSI[αMeL]LDEK([AEEA-AEEA-γGlu-C18 diacid])AQ[Aib]HFI[dE]YLIEGGPSSG-NH2
modifications: N-terminus assumed
SMILES: CC[C@H](C)[C@H](NC(=O)[C@H](CC(C)C)NC(=O)[C@H](Cc1ccc(O)cc1)NC(=O)[C@@H](CCC(=O)O)NC(=O)[C@@H](NC(=O)[C@H](Cc1ccccc1)NC(=O)[C@H](Cc1c[nH]cn1)NC(=O)C(C)(C)NC(=O)[C@H](CCC(N)=O)NC(=O)[C@H](C)NC(=O)[C@H](CCCCNC(=O)COCCOCCNC(=O)COCCOCCNC(=O)CC[C@H](NC(=O)CCCCCCCCCCCCCCCCC(=O)O)C(=O)O)NC(=O)[C@H](CCC(=O)O)NC(=O)[C@H](CC(=O)O)NC(=O)[C@H](CC(C)C)NC(=O)[C@](C)(CC(C)C)NC(=O)[C@@H](NC(=O)[C@H](CO)NC(=O)[C@H](Cc1c[nH]cn1)NC(=O)[C@H](CC(=O)O)NC(=O)[C@H](CO)NC(=O)[C@@H](NC(=O)[C@](C)(Cc1ccccc1F)NC(=O)[C@@H](NC(=O)CNC(=O)[C@H](CCC(=O)O)NC(=O)C(C)(C)NC(=O)[C@@H](N)Cc1ccc(O)cc1)[C@@H](C)O)[C@@H](C)O)[C@@H](C)CC)[C@@H](C)CC)C(=O)N[C@@H](CCC(=O)O)C(=O)NCC(=O)NCC(=O)N1CCC[C@H]1C(=O)N[C@@H](CO)C(=O)N[C@@H](CO)C(=O)NCC(N)=O
B22: Peptide 197 (peptide)
peptide: Y[αMeP]EGTFTSDYSILLDEK([AEEA-AEEA-γGlu-C18 diacid])AQQAFIEYLIEGGPSSG-NH2
modifications: N-terminus assumed
SMILES: CC[C@H](C)[C@H](NC(=O)[C@H](CC(C)C)NC(=O)[C@H](Cc1ccc(O)cc1)NC(=O)[C@H](CCC(=O)O)NC(=O)[C@@H](NC(=O)[C@H](Cc1ccccc1)NC(=O)[C@H](C)NC(=O)[C@H](CCC(N)=O)NC(=O)[C@H](CCC(N)=O)NC(=O)[C@H](C)NC(=O)[C@H](CCCCNC(=O)COCCOCCNC(=O)COCCOCCNC(=O)CC[C@H](NC(=O)CCCCCCCCCCCCCCCCC(=O)O)C(=O)O)NC(=O)[C@H](CCC(=O)O)NC(=O)[C@H](CC(=O)O)NC(=O)[C@H](CC(C)C)NC(=O)[C@H](CC(C)C)NC(=O)[C@@H](NC(=O)[C@H](CO)NC(=O)[C@H](Cc1ccc(O)cc1)NC(=O)[C@H](CC(=O)O)NC(=O)[C@H](CO)NC(=O)[C@@H](NC(=O)[C@H](Cc1ccccc1)NC(=O)[C@@H](NC(=O)CNC(=O)[C@H](CCC(=O)O)NC(=O)[C@]1(C)CCCN1C(=O)[C@@H](N)Cc1ccc(O)cc1)[C@@H](C)O)[C@@H](C)O)[C@@H](C)CC)[C@@H](C)CC)C(=O)N[C@@H](CCC(=O)O)C(=O)NCC(=O)NCC(=O)N1CCC[C@H]1C(=O)N[C@@H](CO)C(=O)N[C@@H](CO)C(=O)NCC(N)=O

These binders were tested against human GLP-1 receptor (human, UniProt P43220 24-463) (assay: cell-based or functional assay).

Binder | hGLPIR cAMP EC50 ratio
B1 | 0.0212
B2 | 0.402
B3 | 0.29
B4 | 0.038
B5 | 0.712
B6 | 0.587
B7 | 0.718
B8 | 1.42
B9 | 1.23
B10 | 0.0968
B11 | 0.689
B12 | 1.46
B13 | 0.0427
B14 | 0.702
B15 | 0.00349
B16 | 0.671
B17 | 0.668
B18 | 0.0373
B19 | 0.873
B20 | 0.843
B21 | 0.0169
B22 | 0.189
